The source of these data is the supplement of paper PMC9233669.

The subject of one data set is biotinyl-Trp-oxazolone. The data set can be described thus: self-aminoacylation, catalytic enhancement (BWO) (fold over background); higher = more active; k-Seq, kA / k0A0; sequences stand for … in GGGAAUGGAUCCACAUCUACGAAUUC…UUCACUGCAGACUUGACGAAGCUG
In short, it runs like this: (§1)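 Catalytic enhancement equals the median kA over the uncatalyzed rate, the latter read from the low-activity peak of a bimodal Gaussian fit. Values of kA came from fitting each sequence's fraction reacted to a pseudo-first-order model, with 1000 bootstraps. Reacted RNA was captured with streptavidin and quantified by triplicate qPCR and Illumina sequencing after 90 minutes at room temperature with 2–1250 μM biotinyl-aminoacyl-oxazolone and 0.43 μM mutagenized RNA pools bearing a 21-nt variable region.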

For the next data set, the system named is biotinyl-Phe-oxazolone. The data set can be described thus: self-aminoacylation, catalytic enhancement (BFO) (fold over background); higher = more active; k-Seq, kA / k0A0; sequences stand for … in GGGAAUGGAUCCACAUCUACGAAUUC…UUCACUGCAGACUUGACGAAGCUG
In short, it runs like this: as §1

For a further data set, the system named is biotinyl-Met-oxazolone. The data set can be described thus: self-aminoacylation, catalytic enhancement (BMO) (fold over background); higher = more active; k-Seq, kA / k0A0; sequences stand for … in GGGAAUGGAUCCACAUCUACGAAUUC…UUCACUGCAGACUUGACGAAGCUG
In outline: as §1

In a further data set the test system is biotinyl-Leu-oxazolone. The data set can be described thus: self-aminoacylation, catalytic enhancement (BLO) (fold over background); higher = more active; k-Seq, kA / k0A0; sequences stand for … in GGGAAUGGAUCCACAUCUACGAAUUC…UUCACUGCAGACUUGACGAAGCUG
In outline: as §1

Variants at the floor of the assay were thinned out.

As for “AACUCUGCUAAUAGUCGCAAG [Fam3.1 aminoacylation ribozyme variant]”, the self-aminoacylation worked out at 5.56 in the data set on biotinyl-Trp-oxazolone, 16.4 in the data set on biotinyl-Phe-oxazolone and 2.46 in the data set on biotinyl-Met-oxazolone.
“AAGAAUGCUAAUAGUCGCAAG [Fam3.1 aminoacylation ribozyme variant]”: the self-aminoacylation turned out to be 3.69 with biotinyl-Trp-oxazolone, 12.5 with biotinyl-Phe-oxazolone and 2.19 in the data set on biotinyl-Met-oxazolone.
The like results for “AAGACUGCUAAUAGUCGCAAG [Fam3.1 aminoacylation ribozyme variant]” were, in that order, 4.56, 18.5 and 2.04.
Consider “AAGAUUGUUAAUAGUCGCAAG [Fam3.1 aminoacylation ribozyme variant]”, for which the self-aminoacylation with biotinyl-Trp-oxazolone was determined as 2.65; with biotinyl-Phe-oxazolone it was 2.81; in the data set with biotinyl-Met-oxazolone, 2.14.
For “AAGCUUGCUAAUAGCCGCAAG [Fam3.1 aminoacylation ribozyme variant]”, the self-aminoacylation was found to be 3.08 in the data set on biotinyl-Trp-oxazolone, 2.58 in the data set with biotinyl-Leu-oxazolone, 3.2 in the data set with biotinyl-Phe-oxazolone and 2.25 in the data set with biotinyl-Met-oxazolone.
Regarding “AAGCUUGCUAAUAGUCGCAGG [Fam3.1 aminoacylation ribozyme variant]”, the results for the self-aminoacylation with biotinyl-Trp-oxazolone, in the data set with biotinyl-Leu-oxazolone and with biotinyl-Phe-oxazolone were 2.15, 2.14 and 7.7, respectively.
In the case of “AAGCUUGGUAAUAGUCGCAAG [Fam3.1 aminoacylation ribozyme variant]”, the self-aminoacylation with biotinyl-Trp-oxazolone is 2.68; in the data set with biotinyl-Leu-oxazolone, 2.52; in the data set with biotinyl-Phe-oxazolone, 2.69; in the data set with biotinyl-Met-oxazolone, 2.46.
With “AAGUGUGCUAAUAGUCGCCAG [Fam3.1 aminoacylation ribozyme variant]”, the self-aminoacylation with biotinyl-Trp-oxazolone amounted to 2.33; in the data set with biotinyl-Leu-oxazolone, 2.2; with biotinyl-Phe-oxazolone, 2.38.
As to “AAGUUUGCCAAUAGUCGCACG [Fam3.1 aminoacylation ribozyme variant]”, the self-aminoacylation turned out to be 2.05 in the data set on biotinyl-Leu-oxazolone and 2.3 in the data set on biotinyl-Met-oxazolone.
On to “AAGUUUGCUAAUAGUCGCGUG [Fam3.1 aminoacylation ribozyme variant]”, for which the self-aminoacylation turned out to be 2.15 with biotinyl-Trp-oxazolone, 2.15 in the data set with biotinyl-Leu-oxazolone, 8.13 in the data set on biotinyl-Phe-oxazolone and 2.33 in the data set with biotinyl-Met-oxazolone.
As to “AAUACCCUGGUCAUCGAGUGG [Fam2.1 aminoacylation ribozyme variant]”, the self-aminoacylation is 3.39 in the data set on biotinyl-Trp-oxazolone, 2.81 with biotinyl-Leu-oxazolone, 7.18 in the data set on biotinyl-Phe-oxazolone and 2.49 with biotinyl-Met-oxazolone.
“AAUACCCUGGUCCUCGAGUGA [Fam2.1 aminoacylation ribozyme variant]”: the self-aminoacylation is 3.22 with biotinyl-Trp-oxazolone, 3.33 with biotinyl-Leu-oxazolone, 9.54 in the data set on biotinyl-Phe-oxazolone and 3.08 in the data set with biotinyl-Met-oxazolone.
The matching figures for “AUAACCCUGGUCAUCGUGUGA [Fam2.1 aminoacylation ribozyme variant]”: 3.32, 3.53, 15.2 and 3.15.
For the sequence “AUACACCUAGGUCAUCGAGUG [Fam2.2 aminoacylation ribozyme variant]”, the self-aminoacylation in the data set with biotinyl-Trp-oxazolone was 2.4; with biotinyl-Leu-oxazolone, 2.87; in the data set with biotinyl-Phe-oxazolone it was 2.81; in the data set on biotinyl-Met-oxazolone, 2.4.
“AUUAACCUGGCCAUCGAGUGA [Fam2.1 aminoacylation ribozyme variant]”: the self-aminoacylation in the data set on biotinyl-Trp-oxazolone stood at 2.78; in the data set on biotinyl-Leu-oxazolone, 2.11; in the data set with biotinyl-Met-oxazolone, 2.01.
With “AUUACACUGGUCAUCAAGUGA [Fam2.1 aminoacylation ribozyme variant]”, the self-aminoacylation was determined as 3.18 with biotinyl-Trp-oxazolone, 2.31 with biotinyl-Leu-oxazolone, 3.52 with biotinyl-Phe-oxazolone and 2.7 with biotinyl-Met-oxazolone.
In the case of “AUUACCCAGGUCAUCGUGUGA [Fam2.1 aminoacylation ribozyme variant]”, the self-aminoacylation amounted to 4.27 with biotinyl-Trp-oxazolone, 3.86 with biotinyl-Leu-oxazolone, 21.4 with biotinyl-Phe-oxazolone and 3.58 with biotinyl-Met-oxazolone.
For the sequence “AUUACCCUCGUCAUGGAGUGA [Fam2.1 aminoacylation ribozyme variant]”, the self-aminoacylation in the data set with biotinyl-Trp-oxazolone came out at 2.5; in the data set on biotinyl-Leu-oxazolone it was 3.02; with biotinyl-Phe-oxazolone, 8.82; in the data set with biotinyl-Met-oxazolone, 2.81.
For the sequence “AUUACCCUCGUCGUCGAGUGA [Fam2.1 aminoacylation ribozyme variant]”, the self-aminoacylation is 2.11 in the data set with biotinyl-Trp-oxazolone, 2.04 in the data set on biotinyl-Leu-oxazolone and 3.84 in the data set with biotinyl-Phe-oxazolone.
As to “AUUACCCUGGGCUUCGAGUGA [Fam2.1 aminoacylation ribozyme variant]”, the figures for the self-aminoacylation in the data set with biotinyl-Trp-oxazolone and in the data set on biotinyl-Met-oxazolone were 2.03 and 2.01, respectively.
For “AUUACCCUGGUCAUCCAGAGA [Fam2.1 aminoacylation ribozyme variant]”, the self-aminoacylation in the data set with biotinyl-Leu-oxazolone is 2.03; in the data set on biotinyl-Phe-oxazolone, 2.38.
In the case of “AUUACCCUGGUCAUCGAGGGG [Fam2.1 aminoacylation ribozyme variant]”, the self-aminoacylation with biotinyl-Trp-oxazolone worked out at 2.23; in the data set with biotinyl-Leu-oxazolone, 2.42; in the data set with biotinyl-Phe-oxazolone, 2.86; in the data set on biotinyl-Met-oxazolone, 2.75.
“AUUACCCUGGUCCUCGAGUGG [Fam2.1 aminoacylation ribozyme variant]”: the results for the self-aminoacylation with biotinyl-Phe-oxazolone and with biotinyl-Met-oxazolone were 2.88 and 2.1, respectively.
As for “AUUACCCUGGUCGUCCAGUGA [Fam2.1 aminoacylation ribozyme variant]”, the self-aminoacylation in the data set with biotinyl-Trp-oxazolone was determined as 3.21; in the data set on biotinyl-Leu-oxazolone, 2.88; in the data set on biotinyl-Phe-oxazolone, 11.1; in the data set on biotinyl-Met-oxazolone it was 2.68.
“AUUCACCUAGAUAAUCGGGUG [Fam2.2 aminoacylation ribozyme variant]”: the values for the self-aminoacylation in the data set with biotinyl-Leu-oxazolone, in the data set on biotinyl-Phe-oxazolone and in the data set on biotinyl-Met-oxazolone were 2.79, 12.9 and 2.25, respectively.
Take “AUUCACCUAGGUCCUCGGGAG [Fam2.2 aminoacylation ribozyme variant]”: the self-aminoacylation was determined as 2.11 with biotinyl-Leu-oxazolone and 2.83 in the data set on biotinyl-Phe-oxazolone.
The matching figures for “AUUCACUUAGCUCAUCGGGUG [Fam2.2 aminoacylation ribozyme variant]”: 2.03 and 4.96.
Turning to “AUUCUCCUAGGUCAUAGGGUG [Fam2.2 aminoacylation ribozyme variant]”, the self-aminoacylation in the data set on biotinyl-Leu-oxazolone amounted to 2.94; with biotinyl-Phe-oxazolone it was 8.67; with biotinyl-Met-oxazolone, 2.33.
“CCACACUUCAAGCAGUCGCUC [Fam1B.1 aminoacylation ribozyme variant]”: the self-aminoacylation with biotinyl-Leu-oxazolone was 2.06; in the data set with biotinyl-Phe-oxazolone, 4.31.
For the sequence “CCACUCUUCAAGCAAUCGGGC [Fam1B.1 aminoacylation ribozyme variant]”, the self-aminoacylation with biotinyl-Leu-oxazolone stood at 2.21.
With “CCAGGCUUCAAGCAAUCGGUC [Fam1B.1 aminoacylation ribozyme variant]”, the figures for the self-aminoacylation in the data set with biotinyl-Trp-oxazolone, with biotinyl-Leu-oxazolone and with biotinyl-Phe-oxazolone were 40.8, 2.42 and 83.5, respectively.
For the sequence “CCGCACUUCAAACAAUCGGUC [Fam1B.1 aminoacylation ribozyme variant]”, the results for the self-aminoacylation in the data set on biotinyl-Trp-oxazolone, in the data set with biotinyl-Leu-oxazolone and in the data set with biotinyl-Phe-oxazolone were 74.3, 3.41 and 157, respectively.
The matching figures for “CCUCUUCAAACAAUCGGUCUG [Fam1A.1 aminoacylation ribozyme variant]”: 38.6, 2.36 and 85.8.
For “CGACUUCAAACAAUCGGUGUG [Fam1A.1 aminoacylation ribozyme variant]”, the self-aminoacylation in the data set with biotinyl-Trp-oxazolone was 9.56; with biotinyl-Leu-oxazolone, 2.54; in the data set with biotinyl-Phe-oxazolone, 10.9.
As for “CUACCUCAAACAAUCGGCCUG [Fam1A.1 aminoacylation ribozyme variant]”, the figures for the self-aminoacylation in the data set with biotinyl-Trp-oxazolone, in the data set on biotinyl-Leu-oxazolone and in the data set with biotinyl-Phe-oxazolone were 5.05, 2.11 and 3.13, respectively.
In the case of “CUACCUCAAACAUUCGGUCUG [Fam1A.1 aminoacylation ribozyme variant]”, the self-aminoacylation was found to be 3.08 in the data set with biotinyl-Trp-oxazolone, 2.13 in the data set on biotinyl-Leu-oxazolone and 10.3 in the data set with biotinyl-Phe-oxazolone.
As for “CUACUUCAAACAAUCGAUGUG [Fam1A.1 aminoacylation ribozyme variant]”, the self-aminoacylation in the data set with biotinyl-Phe-oxazolone was 3.31; in the data set with biotinyl-Met-oxazolone it was 2.24.
For the sequence “CUACUUCAAAGAAUCGGCCUG [Fam1A.1 aminoacylation ribozyme variant]”, the self-aminoacylation in the data set on biotinyl-Trp-oxazolone worked out at 8.54; in the data set on biotinyl-Leu-oxazolone, 2; in the data set on biotinyl-Phe-oxazolone, 6.89.
“CUGCACUUCAAGCAAUCGGUC [Fam1B.1 aminoacylation ribozyme variant]”: the self-aminoacylation in the data set with biotinyl-Trp-oxazolone was determined as 28.1; in the data set with biotinyl-Phe-oxazolone, 52.
“CUGCUUCAAACAAUCGGUCUC [Fam1A.1 aminoacylation ribozyme variant]”: the self-aminoacylation stood at 46 with biotinyl-Trp-oxazolone, 2.47 in the data set with biotinyl-Leu-oxazolone and 107 with biotinyl-Phe-oxazolone.
As for “CUUCUUCAAACAAUCGGUCCG [Fam1A.1 aminoacylation ribozyme variant]”, the self-aminoacylation in the data set on biotinyl-Trp-oxazolone was found to be 2.74; with biotinyl-Phe-oxazolone it was 3.96.
“GCACUCUUCAAGCAAUCGGUC [Fam1B.1 aminoacylation ribozyme variant]”: the self-aminoacylation in the data set with biotinyl-Trp-oxazolone turned out to be 5.27; with biotinyl-Leu-oxazolone, 2.07; with biotinyl-Phe-oxazolone it was 6.58.
For “GUACUUCAAACAAUCGGUAUG [Fam1A.1 aminoacylation ribozyme variant]”, the self-aminoacylation in the data set on biotinyl-Trp-oxazolone stood at 9.84; with biotinyl-Phe-oxazolone it was 11.5.
With “UCAAACUUCAAGCAAUCGGUC [Fam1B.1 aminoacylation ribozyme variant]”, the self-aminoacylation was found to be 15.9 with biotinyl-Trp-oxazolone and 25.8 in the data set with biotinyl-Phe-oxazolone.
For the sequence “UCAGACUUCAAGCAAUCGGUC [Fam1B.1 aminoacylation ribozyme variant]”, the self-aminoacylation is 37.2 with biotinyl-Trp-oxazolone, 2.62 in the data set on biotinyl-Leu-oxazolone and 63.8 with biotinyl-Phe-oxazolone.
With “UUACUCCAAACAAUCGGUCUG [Fam1A.1 aminoacylation ribozyme variant]”, the self-aminoacylation in the data set on biotinyl-Trp-oxazolone is 2.69; with biotinyl-Phe-oxazolone, 3.73.
For the sequence “UUACUUCAAACAAUCGGUCGG [Fam1A.1 aminoacylation ribozyme variant]”, the values for the self-aminoacylation in the data set with biotinyl-Trp-oxazolone, with biotinyl-Leu-oxazolone and with biotinyl-Phe-oxazolone were 14.5, 2.1 and 18.1, respectively.
As to “UUACUUCAAACAAUCGGUCUU [Fam1A.1 aminoacylation ribozyme variant]”, the self-aminoacylation came to 9.31 in the data set with biotinyl-Trp-oxazolone and 17 in the data set on biotinyl-Phe-oxazolone.
